Data from patent publication US7648964B2, “Use of lacritin in promoting ocular cell survival” (University of Virginia Patent Foundation, priority 2004, dated 2010).
Entries after “also recorded” stand apart in the source; their conditions may differ.

Experiments:
PKCα = PKCα translocation in HSG cells (immunofluorescence, fractionation); assay type: cell-based, human; conditions: for PKCα translocation: 15 min after treatment
Text: In order to dissect the molecular pathways leading to the cell survival by lacritin, protein kinases and transcriptional factors were studied by Western blotting and immunofluorescence microscopy.
Images were acquired at 2-3 s intervals using LaserSharp2000 software (Bio-Rad) and store on disc for later analysis.

[1] = test system: human corneal epithelial (HCE) cells; assay: 3H-thymidine uptake mitogenesis assay; assay type: cell-based
Method: For phosphotyrosine blotting and mitogenesis assays, cells in serum-containing media were seeded overnight in 24-well plates at a density of 0.5×10^5 cells/mm^2 corresponding to 20-30% confluency after cell attachment, incubated in serum-free media without supplements for 24 h (phosphotyrosine) or washed with serum-free media without supplements three times (mitogenesis) and incubated with lacritin (1-1000 nM), or positive controls EGF (1.6 nM) and 10% fetal bovine serum, or negative controls bovine serum albumin or no additive in serum-free media without supplements for the indicated times (phosphotyrosine) or 30 h (mitogenesis). […] After washing, bound antibodies were detected with peroxidase-labeled secondary antibody and ECL. […] Incorporation was stopped with ice-cold phosphate buffered saline and followed by addition of cold and then room temperature trichloracetic acid (10%) for 10 min each, washing of cells with phosphate buffered saline, solubilization with 1 N sodium hydroxide, neutralization with 1 N hydrochloric acid, addition of scintillation fluid and then quantitation in a scintillation counter. […] Seventy-two hours post-transfection, mitogenesis was assessed by co-addition of 10 […] lacritin and [^3H]-thymidine (2 mCi/ml) (Amersham, Piscataway N.J.) for 24 hrs. […]

[2] = test system: human salivary ductal (HSG) cells; assay: 3H-thymidine uptake mitogenesis assay; assay type: cell-based
Method: For phosphotyrosine blotting and mitogenesis assays, cells in serum-containing media were seeded overnight in 24-well plates at a density of 0.5×10^5 cells/mm^2 corresponding to 20-30% confluency after cell attachment, incubated in serum-free media without supplements for 24 h (phosphotyrosine) or washed with serum-free media without supplements three times (mitogenesis) and incubated with lacritin (1-1000 nM), or positive controls EGF (1.6 nM) and 10% fetal bovine serum, or negative controls bovine serum albumin or no additive in serum-free media without supplements for the indicated times (phosphotyrosine) or 30 h (mitogenesis). For phosphotyrosine assays, cells were extracted in 1% NP40 containing sodium vanadate (2 mg/ml), DTT (5 mg/ml), protease inhibitors, 50 mM HEPES, 100 mM NaCl, and 2 mM EDTA; then separated by 10% SDS PAGE, transferred and blotted. The following antibodies (Cell Signaling Technology, Beverly Mass.) were tested: antiphosphotyrosine antibody (P-Tyr-100), anti-phospho-PKC αβII, anti-PKCα, anti-phospho-PKCδ, anti-phospho-PKC (pan), anti-p44/42 MAPK, anti-phospho-Raf, anti-phospho-SAPK/JNK, anti-phospho-p38 Map kinase, anti-phospho-Raf, anti-phospho-Akt, anti-phospho-CaMKII, anti-phospho-MARCKS, or anti-tubulin (loading control). After washing, bound antibodies were detected with peroxidase-labeled secondary antibody and ECL. With the exception of at least nine proteins in the P-Tyr-100 blot (FIG. 1), none of the effectors tested above appeared to be phospho-activated during lacritin signaling (not shown). For mitogenesis (Hussaini et al., '00), [^3H]-thymidine (2 mCi/ml) was added for the next 6 h. Incorporation was stopped with ice-cold phosphate buffered saline and followed by addition of cold and then room temperature trichloracetic acid (10%) for 10 min each, washing of cells with phosphate buffered saline, solubilization with 1 N sodium hydroxide, neutralization with 1 N hydrochloric acid, addition of scintillation fluid and then quantitation in a scintillation counter. To deplete PKCα in HSG cells, a pool of four PKCα-specific siRNAs (100 nM) were transfected via LipofectAMINE 2000 in Opti-MEMI Reduced Serum Medium (Invitrogen, Grand Island N.Y.) without serum and antibiotics according to manufacturer's instructions. Each of the four siRNAs was also individually transfected. In negative controls, cells were transfected with a pool of four lamin-specific siRNAs (Upstate LLC, Charlottesville Va.; Dharmacon Inc, Lafayette Colo.). Seventy-two hours post-transfection, mitogenesis was assessed by co-addition of 10 […] lacritin and [^3H]-thymidine (2 mCi/ml) (Amersham, Piscataway N.J.) for 24 hrs. PKCα depletion was confirmed by Western blotting.

syndecan-1 = target: T1, syndecan-1 (Homo sapiens, UniProt P18827); assay: Competitive binding assay of lacritin-syndecan-1 binding; conditions: competitive binding assays
T1 construct: expressed in transfected cells; host or cells: HEK293 (syndecan-1); E. coli ER2566 (lacritin-intein)
T1 sequence (P18827 23-310): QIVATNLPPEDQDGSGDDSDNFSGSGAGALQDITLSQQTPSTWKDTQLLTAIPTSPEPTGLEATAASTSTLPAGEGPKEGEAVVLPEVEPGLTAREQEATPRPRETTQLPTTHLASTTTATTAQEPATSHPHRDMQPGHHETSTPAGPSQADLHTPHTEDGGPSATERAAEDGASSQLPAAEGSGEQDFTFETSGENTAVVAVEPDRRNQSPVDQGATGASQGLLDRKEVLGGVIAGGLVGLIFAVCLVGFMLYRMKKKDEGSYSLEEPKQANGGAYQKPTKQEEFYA
Text: Biotinylated cell surface proteins were applied to lacritin affinity columns. After washing extensively in physiological salt-containing buffer, bound protein was eluted with 1 M NaCl, and identified with avidin-peroxidase using an ECL blot method. In controls, columns lacking lacritin were used. […] 293T cells stably transfected with human syndecan-2 or −4 were kindly provided by Dr. Atsushi Utani (Chiba University). A series of lacritin C-terminal and N-terminal deletion mutants were generated. Pull down binding assays involved incubation of intein-tagged lacritin or intein deletion mutants with lysates of untransfected or transfected cells followed by precipitation and SDS PAGE. Immunolocalization of syndecan-1 in human lacrimal glands was performed using anti-human syndecan-1 antibody (CD138).
The first of approximately four bands repeatedly eluted from lacritin affinity column was determined by sequencing to be syndecan-1. In pull-down assays, lacritin bound mammalian syndecan-1, but not syndecan-2 or 4. The binding appeared to be independent of heparan sulfate side chains, in keeping with lack of lacritin binding to heparin (previously known). Deletion of lacritin's C-terminal 25 but not N-terminal 5, 10, or 24 amino acids eliminated binding. […] Syndecan-1 was detected in ‘near apical’ and basolateral plasma membranes in human lacrimal gland.

Cn1c2ccccc2c2c3c(c4c5ccccc5n(CCC#N)c4c21)CNC3=O [Go 6976]
effect on lacritin-dependent PKCα translocation (PKCα; pertussis toxin 100 ng/ml, Go 6976, U73122, U73343, cyclosporine 1 μM, nifedipine 10 μM): inhibited

B1: lacritin: recombinant human lacritin from E. coli; mature 119 residue fragment (SEQ ID NO:10) of native lacritin SEQ ID NO:4 (protein, listed as Homo sapiens)
chain: EDASSDSTGADPAQEAGTSKPNEEISGPAEPASPPETTTTAQETSAAAVQGTAKVTSSRQELNPLKSIVEKSILLTEQALAKAGKGMHGGVPGGKQFIENGSEFAQKLLKKFSLLKPWA
PKCα translocation (PKCα): shifted PKCα primarily to the perinuclear Golgi region | PKC alpha at the cell membrane (PKCα; about 5 minutes lacritin treatment, subcellular fractionation, Western blotting): very little PKC alpha was detected at the cell membrane | PKC alpha localization (PKCα; lacritin treatment for 1 hour, immunofluorescence): localize outside of the nuclear envelope | mitogenesis [1]: mitogenic; also recorded: promote cell proliferation | proliferation in nominally calcium-free medium [2]: proliferated in a bell-shaped lacritin dose-dependent manner | time to detectable 3H-thymidine uptake ([2]; not shown): Within two hours | level of proliferation at optimal dose ([2]; vs 10% FBS positive control): matching the FBS positive control | inhibition of binding (syndecan-1): inhibited binding

B2: N-24: deletion mutant comprising a deletion of the 24 amino terminal amino acids of lacritin (protein)
chain: DSTGADPAQEAGTSKPNEEISGPAEPASPPETTTTAQETSAAAVQGTAKVTSSRQELNPLKSIVEKSILLTEQALAKAGKGMHGGVPGGKQFIENGSEFAQKLLKKFSLLKPWA
modifications: homo sapiens
notes: deletion mutant comprising a deletion of the 24 amino terminal amino acids of lacritin
PKCα translocation (PKCα): shifted PKCα primarily to the perinuclear Golgi region | mitogenesis [1]: promote cell proliferation | mitogenic activity of deletion constructs ([2]; 10 nM, compared to intact lacritin): active | inhibition of binding (syndecan-1): inhibited binding
